Experimental data from doi:10.1101/2024.12.31.629942 (bioRxiv, 2024).
Residue numbers refer to the chain shown, from its start. Numbers in names are those of the source.

Tests used:
FtsZ^D212N (untagged) = target: T1, FtsZ^D212N (untagged) (E. coli, UniProt P0A9A6 1-383, D212N); test: pull-down
T1 sequence: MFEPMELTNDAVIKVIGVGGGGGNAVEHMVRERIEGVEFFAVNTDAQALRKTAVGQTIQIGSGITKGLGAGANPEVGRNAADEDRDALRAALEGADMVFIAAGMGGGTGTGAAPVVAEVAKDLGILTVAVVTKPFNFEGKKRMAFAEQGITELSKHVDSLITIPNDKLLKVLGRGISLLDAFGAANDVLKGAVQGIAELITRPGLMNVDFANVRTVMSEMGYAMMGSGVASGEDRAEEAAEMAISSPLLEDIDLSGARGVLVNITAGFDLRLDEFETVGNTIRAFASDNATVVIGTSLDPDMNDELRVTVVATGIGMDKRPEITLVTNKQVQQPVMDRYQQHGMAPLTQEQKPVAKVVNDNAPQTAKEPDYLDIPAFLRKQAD

[1] = target: T2, FtsZ (wild-type, untagged) (E. coli, UniProt P0A9A6 1-383); test: co-sedimentation
T2 sequence: T1 sequence with N212D

[2] = target: the molecule itself; test: sedimentation of polymers

B1: H-SUMO-ZapA (natural protein)
chain: MSAQPVDIQIFGRSLRVNCPPDQRDALNQAADDLNQRLQDLKERTRVTNTEQLVFIAALNISYELAQEKAKTRDYAASMEQRIRMLQQTIEQALLEQGRITEKTNQNFE
FtsZ^D212N (untagged)
  binding result: binds

B2: ZapA (untagged) (natural protein)
chain: B1 chain
[1]
  binding result: binds

B3: FtsZ^F2A (untagged) (natural protein)
chain: T1 sequence with F2A, N212D
[2]
  binding result: binds
